We go through 2 molecules from publication PMC10470531, “RecJ3/4-aRNase J form a Ubl-associated nuclease complex functioning in survival against DNA damage in Haloferax volcanii” (mBio, 2023).

The target of data set [1] is His6-RecJ3 (H. volcanii) (UniProt D4GVJ5). Briefly: SEC; HisTrap-bound, Strep-Tactin flow-through fractions from H. volcanii HJ07; Superdex 200 Increase 10/300 GL; 50 mM HEPES pH 7.5, 2 M NaCl, 1 mM DTT, 5 mM MnCl2, 5 mM MgCl2, 10% glycerol; fractions on reducing SDS-PAGE. On the technique in general: Size exclusion chromatography separates by hydrodynamic size, large species first.

For data set [2] the target is unchanged. Briefly: affinity purification with mass spectrometry; tandem affinity purification (HisTrap, then Strep-Tactin) of His6-RecJ3 and aRNase J-StrepII from H. volcanii HJ02-pJAM4252 against the empty vector; 2 M NaCl buffers; LC-MS/MS of the liquid fractions and AQUA-based MS/MS (SRM with heavy peptides) for the stoichiometry.
In data set [3] the target is aRNase J-StrepII (H. volcanii) (UniProt D4GW49). The data set is described as above.
Data set [4] deals with the molecule itself. The experiment in a line: SEC; aRNase J-StrepII purified by Strep-Tactin from H. volcanii HS01-pJAM1406 (ΔrecJ3); Superdex 200 Increase 10/300 GL; 50 mM HEPES pH 7.5, 2 M NaCl, 1 mM DTT, 5 mM MnCl2, 10% glycerol; column calibrated with mass standards.

Chain of His6-RecJ3 (H. volcanii) (D4GVJ5 entry or part of it): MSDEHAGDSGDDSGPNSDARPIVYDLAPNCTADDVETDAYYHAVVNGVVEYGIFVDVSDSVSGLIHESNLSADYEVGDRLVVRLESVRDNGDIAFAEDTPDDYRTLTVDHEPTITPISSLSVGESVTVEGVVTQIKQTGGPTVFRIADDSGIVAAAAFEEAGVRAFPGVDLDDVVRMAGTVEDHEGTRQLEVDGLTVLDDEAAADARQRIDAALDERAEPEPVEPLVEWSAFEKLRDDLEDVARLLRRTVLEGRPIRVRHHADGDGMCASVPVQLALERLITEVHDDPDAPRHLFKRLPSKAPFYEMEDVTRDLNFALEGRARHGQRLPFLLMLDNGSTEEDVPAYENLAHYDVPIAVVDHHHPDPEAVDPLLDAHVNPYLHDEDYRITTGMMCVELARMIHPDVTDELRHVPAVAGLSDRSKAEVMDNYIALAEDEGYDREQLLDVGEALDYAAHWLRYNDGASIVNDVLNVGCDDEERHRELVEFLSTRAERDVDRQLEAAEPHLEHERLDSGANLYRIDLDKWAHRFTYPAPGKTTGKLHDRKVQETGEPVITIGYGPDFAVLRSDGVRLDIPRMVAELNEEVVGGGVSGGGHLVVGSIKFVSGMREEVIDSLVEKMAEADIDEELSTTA

For RecJ4 (natural protein), the stoichiometry N (RecJ4 per RecJ3) in data set [1] and in data set [2] was 1 in each case. This molecule displayed a stoichiometry N (RecJ4 per aRNase J) in data set [3] of 2.

B1: aRNase J-StrepII (natural protein, H. volcanii, UniProt D4GW49 1-450, looked up)
chain: MEIEIATIGGYEEVGRQMTAVRAGDDVVVFDMGLNLSQVLIHDNVETEKMHSLDLIDMGAIPDDRVMSDLEGDVQAIVPTHGHLDHIGAISKLAHRYDAPVVATPFTIELVKQQIEGENKFNVNNDLVKMEAGETMSIGDSGNVELEFVHVTHSIIDAINPVVHTPEGAVVYGLDKRMDHSPVLEDPIDMKRFREIGREGNGVLAYIEDCTNAGRKGRTPSESVARRHLKDVMTSVEDYDGGIVATTFSSHISRVSSLVEFAKDIGRQPVLLGRSMEKYSGTAERLGFVDLPDDLGMYGHRKSVDRTFKRIMKEGKENYLPIVTGHQGEPRAMLTRMGRGETPYEIDDGDKVIFSARVIPEPTNEGQRYQSERLLRMQGARIYDEIHVSGHLREEGHYEMLQALQPQHVIPAHQNLKGFAPYVDLAESQGYALGRDLHVTRNGNMIQLVE
notes: archaeal RNase J of Haloferax volcanii, amplified with primers HVO_2724 NdeI and HVO_2724 KpnI; A homodimer when purified from the ΔrecJ3 mutant (SEC); in the RecJ3/4-aRNase J complex the stoichiometry is 2:2:1; also called aRNase J with a C-terminal StrepII tag; aRNase J homodimer; source: H. volcanii H26- or HS01-pJAM1406, HJ02-, HJ04- or HJ07-pJAM4252, in lysate; purified (Strep-Tactin, SEC); …
For orientation: stoichiometry N means the number of molecules, sites or subunits per partner or assembly. With B1, in data set [4], the “stoichiometry N” value is 2.
